Data on one substance can be found in patent US10654893B2, “Self-assembling peptide compositions” (3-D MATRIX, LTD., priority 2014, dated 2020).

This series is described as follows: Formulation chart: concentration for desired storage modulus from linear trendline equations. It is filed as physicochemical. Conditions: linear trendline equation. The text has this: In some embodiments, peptide compositions with a specific desired stiffness may be formulated to have a particular peptide concentration determined using a mathematical model (i.e., the modulus trend-line equation). A formulation chart of peptide compositions may relate their concentrations in deionized water to their specific storage moduli, for example as is presented below in Table 3A. From such a chart, one skilled in the art may formulate a peptide composition with desired rheological properties by selecting a particular peptide and an appropriate peptide concentration so that the formulated composition has a desired stiffness.

As for “Arg-Ala-Asp-Ala-Arg-Ala-Asp-Ala-Arg-Ala-Asp-Ala-Arg-Ala-Asp-Ala [RADA16]”, the “Peptide concentration with deionized water to obtain desired storage modulus” value (from here on “Peptide concentration”) is given as 0.8 (storage modulus 25 Pa); 0.9 (storage modulus 50 Pa); 1.0 (storage modulus 75 Pa); 1.2 (storage modulus 100 Pa); 1.3 (storage modulus 125 Pa); 1.5 (storage modulus 150 Pa). Moreover, the “Peptide concentration” value (storage modulus 175 Pa) worked out at 1.6; the “Peptide concentration” value (storage modulus 200 Pa) stood at 1.7; the “Peptide concentration” value (storage modulus 225 Pa) was 1.9; the “Peptide concentration” value (storage modulus 250 Pa) was determined as 2.0; the “Peptide concentration” value (storage modulus 275 Pa) was 2.2; the “Peptide concentration” value (storage modulus 300 Pa) is on record as 2.3. The “Peptide concentration” value runs as follows: (storage modulus 325 Pa) 2.4; (storage modulus 350 Pa) 2.6; (storage modulus 375 Pa) 2.7; (storage modulus 400 Pa) 2.9; (storage modulus 425 Pa) 3.0; (storage modulus 500 Pa) 3.4. For the same substance, the “Peptide concentration” value (storage modulus 600 Pa) amounted to 4.0, the “Peptide concentration” value (storage modulus 700 Pa) came to 4.5 and the “Peptide concentration” value (storage modulus 800 Pa) is recorded as 5.1.
